Reference: patent publication US20190055322A1 (Ablynx, published 2019)

Legend:
[1] = target: Full length PcrV (aa 1-294), C-terminal c-myc and His6 tags (Pseudomonas aeruginosa strain PAO1); test: ELISA, binder coated
[2] = target: T1, PcrV of P. aeruginosa strain PA103 (on TTSS-induced bacteria) (Pseudomonas aeruginosa strain PA103); test: cell-based or functional assay
[3] = target: GST-PcrV (strain PAO1, amino acid residues 1-294) (Pseudomonas aeruginosa strain PAO1); test: SPR Biacore T100, GST-PcrV immobilised
[4] = target: T2, recombinant PcrV protein (rPcrV), strain PAO1, amino acid residues 1-294, C-terminal His6 (Pseudomonas aeruginosa strain PAO1); test: SPR ProteOn, periplasmic extract on immobilised rPcrV
[5] = target: T2, recombinant PcrV protein (rPcrV), …; test: ELISA, periplasmic extract on biotinylated rPcrV
[6] = target: T1, PcrV of P. aeruginosa strain PA103 (on …); test: cell-based or functional assay; remark: listed apart in the source
[7] = target: T3, PcrV fragment (aa 144-257), C-terminal c-myc and His6 tags (Pseudomonas aeruginosa); test: ELISA, binder coated; NB = binding signal = background signal
T3 construct: also called small PcrV fragment
Wherever cytotox assay (% inhibition), P3X63, PA103 is given: test concentration or dose not given here.

Row | Binder | binding result [1] | % inhibition, P3X63 cytotoxicity assay, MOI 4 [2] [%] | IC50 (nM), P3X63 cytotoxicity assay, MOI 4 [2] [nM] | Kd [3] [µM] | koff [3] [s⁻¹] | kon [3] [M⁻¹ s⁻¹] | koff [4] [s⁻¹] | binding ELISA (OD 450 nm) [5] [OD 450 nm] | cytotox assay (% inhibition), P3X63, PA103 [6] [%] | % inhibition, P3X63 cytotoxicity assay, MOI 1.5 [2] [%] | IC50 (nM), P3X63 cytotoxicity assay, MOI 1.5 [2] [nM] | binding result [7] | % inhibition, P3X63 cytotoxicity assay, MOI 3 [2] [%] | IC50 (nM), P3X63 cytotoxicity assay, MOI 3 [2] [nM]
1 | Nanobody 5H01 (VHH, also called 05H01) VHH: EVQLVESGGGLVQPGGSLRLSCAASGSTLDYYAIGWFRQAPGKEREGVSCTSNSGSTYYGGSVKGRFTASRDNAKNTVYLQMNSLRPEDTAVYYCVATIGCATLGGTLDVQRYYYRGQGTQVTVSS | binds | 100 | 7 | 0.001 | 0.00014 | 160000 | 4.9e-05 | 2.69 | 76 |  |  |  |  | 
2 | Nanobody 2B10 (VHH, also called 02B10) VHH: EVQLVESGGGLVQPGGSLRLSCAASGSIFSINNMGWYRQAPGKQRELVTVVTSNLITTYADSVKGRFTISRDNAKNTVYLQMNSLKPEDTAVYYCNAWARSVGSVPYSQFWGQGTLVTVSS | binds | 100 | 647 | 0.0005 | 0.00025 | 510000 | 0.00018 | 2.57 | 38 |  |  |  |  | 
3 | Nanobody 13F07 (VHH) VHH: EVQLVESGGGLVQAGGSLRLSCAASGNTFSTNPMYWYRQAEGKQRELVASISSRGITNYADSVRGRFSISRDNTKDTVYLQMNSLKPEDTAVYYCRLASLSSGTVYWGKGTLVTVSS | binds |  |  |  |  |  | 0.00092 |  | 13 | > 20 | 35600 | no binding |  | 
4 | Nanobody 6B05 (VHH, also called 06B05) VHH: EVQLVESGGGLVQPGGSLRLSCAASGSIFSINTMGWYRQAPGKQRELVSTITSNLVPHYADSVQGRFTISRDNARNTVYLQMNSLKPQDTAHYYCNAWARSSGATPYTNYWGQGTLVTVSS | binds |  |  |  |  |  | 0.00018 | 2.55 | 32 |  |  |  | 100 | 435
5 | Nanobody 7E09 (VHH, also called 07E09) VHH: EVQLVESGGGLVQAGGSLRLSCAASGRTFSSYIMGWFRQAPGKAREFVADITWGQRPYYADSVKGRFTISRDNAKNTVYLEMNSLKPEDTAVYYCAADLGVVIREEHAYWGQGTLVTVSS | binds |  |  |  |  |  | 0.0004 | 2.59 | 16 |  |  | no binding |  | 
6 | Nanobody 1E11 (VHH, also called 01E11) VHH: EVQLVESGGGLVQPGGSLRLSCAASGSTRSVNPMAWFRQAPGRQREWVATISRSGYATYADSVKGRFTISGDNAKSSVYLQMNSLKPEDTAVYYCVTGTYWGQGTLVTVSS | binds | 58 | 23 |  |  |  | 0.00035 | 2.56 | 33 |  |  |  |  | 
7 | Nanobody 14E10 (VHH) VHH: EVQLVESGGGLVQPGGSLRLSCAASGRIFSINTMGWYRQAPGKQRELVAGVTINAITNYADSVKGRFTISRDNAKNTVWLQMNSLKPEDTAVYYCHAWARSSGSAPYSQNWGQGTQVTVSS | binds |  |  |  |  |  | 0.0006 |  | 22 |  |  | no binding | 100 | > 3000
